Measurements published in article PMC9246713.

Biological target: OmpK36WT (wild type OmpK36 porin trimer of K. pneumoniae ATCC 43816) (Klebsiella pneumoniae)
Experiment: cryo-EM structure; OmpK36-TraN sample 0.33 mg ml^-1 diluted 1:6 in buffer A (50 mM NaCl, 10 mM HEPES pH 7.0, 0.03% DDM); graphene oxide-coated grids; Titan Krios 300 keV; 2.6 Å

In the case of “OmpK36WT (wild type OmpK36 porin trimer of K. pneumoniae ATCC 43816) (natural protein)”, the stoichiometry N is reported as 3.
In the case of “TraN from the plasmid pKpQIL (mature TraN, D28 to Q651) (natural protein)”, the occupancy (TraN molecules for each OmpK36 trimer) (molecule for each OmpK36 trimer) is reported as less than 1.
